Measurements as given in patent US20120014911.

Legend:
[1] = molecular target: T1, GST-IFNAR1 (wild type): bacterially expressed cytoplasmic domain of IFNAR1 fused with GST (UniProt P17181)
T1 sequence: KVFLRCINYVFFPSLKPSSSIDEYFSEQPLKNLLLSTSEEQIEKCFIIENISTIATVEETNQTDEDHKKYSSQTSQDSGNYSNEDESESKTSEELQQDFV

[2] = molecular target: T2, recombinant PKD2 used as substrate of Tyk2 and Src (UniProt Q9BZL6)
T2 sequence: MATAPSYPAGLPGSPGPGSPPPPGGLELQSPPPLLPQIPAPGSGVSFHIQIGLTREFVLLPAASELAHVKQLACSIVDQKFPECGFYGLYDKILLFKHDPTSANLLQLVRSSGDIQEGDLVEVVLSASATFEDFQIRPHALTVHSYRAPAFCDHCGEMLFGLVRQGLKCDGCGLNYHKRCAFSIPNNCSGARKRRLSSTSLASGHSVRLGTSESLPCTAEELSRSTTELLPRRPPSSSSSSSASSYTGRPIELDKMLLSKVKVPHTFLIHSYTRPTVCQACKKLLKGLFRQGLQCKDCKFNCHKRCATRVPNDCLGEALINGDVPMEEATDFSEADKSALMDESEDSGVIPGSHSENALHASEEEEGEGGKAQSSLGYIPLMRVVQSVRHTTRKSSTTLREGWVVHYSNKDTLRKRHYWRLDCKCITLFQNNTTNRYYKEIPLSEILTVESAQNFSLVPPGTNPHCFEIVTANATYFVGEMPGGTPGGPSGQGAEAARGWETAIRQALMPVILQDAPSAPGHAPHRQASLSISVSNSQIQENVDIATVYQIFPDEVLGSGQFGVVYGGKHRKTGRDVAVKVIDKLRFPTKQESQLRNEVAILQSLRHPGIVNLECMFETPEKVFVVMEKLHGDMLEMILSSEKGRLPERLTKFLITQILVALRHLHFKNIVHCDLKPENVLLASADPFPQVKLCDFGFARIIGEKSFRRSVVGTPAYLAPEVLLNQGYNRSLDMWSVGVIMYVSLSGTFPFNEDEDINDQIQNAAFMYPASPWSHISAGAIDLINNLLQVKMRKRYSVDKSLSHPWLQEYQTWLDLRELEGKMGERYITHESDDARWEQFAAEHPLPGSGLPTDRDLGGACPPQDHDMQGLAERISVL

[3] = tested on: purified recombinant Nrf2-Neh2 domain (wild type)
[4] = tested on: purified recombinant Nrf2-Neh2 domain S40A
[5] = tested on: purified recombinant Nrf2-Neh2 domain T80A

## bacterially produced recombinant GST-CK1α
[1]
  in vitro phosphorylation of GST-IFNAR1 on Ser535 and Ser532 (immunoblot with phospho-specific antibodies): Incubation of recombinant CKla with wild type GST-IFNAR1 substrate and ATP in vitro resulted in phosphorylation of Ser535 but not of Ser532

## recombinant Src (purchased from Cell Signaling)
[2]
  in vitro tyrosine phosphorylation of PKD2 (immunoblot with anti-phospho-Tyr antibody): tyrosine phosphorylation of PKD2 was easily detected when recombinant Sre protein was used as positive control

## recombinant bacterially produced constitutively active ΔN-PERK
[1]
  in vitro kinase assay: activated PERK was not capable of phosphorylating IFNAR1 in vitro
[3]
  in vitro kinase assay, autoradiography: Purified recombinant PERK phosphorylated wild type Nrf2-Neh2 and a serine 40 to alanine mutant; however, mutation of threonine 80 to alanine abrogated phosphorylation
[4]
  in vitro kinase assay, autoradiography: Purified recombinant PERK phosphorylated wild type Nrf2-Neh2 and a serine 40 to alanine mutant; however, mutation of threonine 80 to alanine abrogated phosphorylation
[5]
  in vitro kinase assay, autoradiography: mutation of threonine 80 to alanine abrogated phosphorylation

## GST-tagged PKD2 kinase-dead K580N mutant
[1]
  in vitro phosphorylation of GST-IFNAR1 on Ser535 (immunoblot with anti-pS535): Ser535 phosphorylation on GST-IFNAR1 incubated with ATP and GST-PKD2 was not evident when a catalytically deficient (kinase-dead, KD) K580N mutant was used in the reaction

## Myc-tagged human CK1δ immunopurified from 293T cells
[1]
  immunokinase assay: phosphorylation of GST-IFNAR1 on Ser535: immunopurified human CK18, CK1E, and protozoan parasite L-CK1 were active against IFNAR1S535 in the immunokinase assay in vitro

## HA-tagged Tyk2 immunopurified from cells
[2]
  in vitro tyrosine phosphorylation of PKD2 (immunoblot with anti-phospho-Tyr antibody): A robust increase in Tyr phosphorylation of PKD2 was seen when HA-Tyk2 was purified from IFN-a-treated cells

## HA-tagged Leishmania major CK1 (L-CK1) immunopurified from 293T cells
[1]
  immunokinase assay: phosphorylation of GST-IFNAR1 on Ser535: immunopurified human CK18, CK1E, and protozoan parasite L-CK1 were active against IFNAR1S535 in the immunokinase assay in vitro
